Results: the supplement of paper PMC10065799, “High-throughput profiling of sequence recognition by tyrosine kinases and SH2 domains using bacterial peptide display” (eLife, 2023)

Columns and labels:
c-Src SH2 = assay: SH2 binding enrichment of the phosphorylated peptide, bacterial display (enrichment ratio); higher = better substrate or ligand; peptides without Tyr show the background
Grb2 SH2 = Grb2 SH2 (UniProt P62993); assay: as above
SHP2-C SH2 = assay: as above
Fer (mouse) = assay: phosphorylation enrichment, bacterial display (enrichment ratio); higher = better substrate or ligand; peptides without Tyr show the background
Fes = Fes (UniProt P07332); assay: as above
FGFR3 = FGFR3 (UniProt P22607); assay: as above
Jak2 = Jak2 (UniProt O60674); assay: as above
c-Abl (mouse) = assay: as above
Fyn = Fyn (UniProt P06241); assay: as above
AncSZ = assay: as above
EPHB2 = EPHB2 (UniProt P29323); assay: as above
EPHB1 = EPHB1 (UniProt P54762); assay: as above
MERTK = MERTK (UniProt Q12866); assay: as above
FGFR1 = FGFR1 (UniProt P11362); assay: as above
c-Src = assay: as above
Hck = Hck (UniProt P08631); assay: as above
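Wherever SH2 binding enrichment of the phosphorylated peptide, bacterial display is given: peptide library displayed on the E. coli surface as eCPX fusions, selected cells deep-sequenced, score is each peptide's frequency after selection divided by its frequency in the input.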
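Wherever phosphorylation enrichment, bacterial display is given: 11-residue human phosphosite peptides and single-mutation variants displayed on the E. coli surface, counted by deep sequencing, each peptide's frequency after selection divided by its frequency in the unselected input library; frequency after pTyr selection over input frequency; kinase dosed for 20-30% of maximal phosphorylation in three min.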

Chain of EPHB1 (P54762 whole entry, looked up): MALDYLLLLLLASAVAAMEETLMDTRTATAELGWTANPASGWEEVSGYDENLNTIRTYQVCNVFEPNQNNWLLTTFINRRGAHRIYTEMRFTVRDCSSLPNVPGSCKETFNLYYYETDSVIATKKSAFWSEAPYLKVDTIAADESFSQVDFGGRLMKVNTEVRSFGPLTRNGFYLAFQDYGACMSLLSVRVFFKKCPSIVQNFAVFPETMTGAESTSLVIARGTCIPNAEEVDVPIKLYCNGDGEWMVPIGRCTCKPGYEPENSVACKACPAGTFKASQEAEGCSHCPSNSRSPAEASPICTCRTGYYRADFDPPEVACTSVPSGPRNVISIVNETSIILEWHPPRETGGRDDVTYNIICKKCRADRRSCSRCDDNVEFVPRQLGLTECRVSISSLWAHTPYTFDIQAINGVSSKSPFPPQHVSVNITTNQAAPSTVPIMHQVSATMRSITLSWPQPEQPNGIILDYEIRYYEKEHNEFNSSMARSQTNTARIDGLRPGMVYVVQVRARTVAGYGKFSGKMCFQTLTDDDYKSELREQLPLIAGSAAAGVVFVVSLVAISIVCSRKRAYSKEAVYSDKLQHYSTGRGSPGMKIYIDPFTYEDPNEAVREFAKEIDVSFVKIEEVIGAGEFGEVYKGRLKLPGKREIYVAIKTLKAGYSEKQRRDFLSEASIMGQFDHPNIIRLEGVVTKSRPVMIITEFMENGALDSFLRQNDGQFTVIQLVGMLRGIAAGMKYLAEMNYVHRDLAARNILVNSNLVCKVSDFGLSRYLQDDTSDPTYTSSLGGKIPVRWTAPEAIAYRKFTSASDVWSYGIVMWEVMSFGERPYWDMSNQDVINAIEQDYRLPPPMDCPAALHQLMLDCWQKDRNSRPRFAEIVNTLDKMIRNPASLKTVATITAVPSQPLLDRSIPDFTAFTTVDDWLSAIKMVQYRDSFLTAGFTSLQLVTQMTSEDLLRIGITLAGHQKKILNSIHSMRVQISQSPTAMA
Chain of FGFR1 (P11362 whole entry, looked up): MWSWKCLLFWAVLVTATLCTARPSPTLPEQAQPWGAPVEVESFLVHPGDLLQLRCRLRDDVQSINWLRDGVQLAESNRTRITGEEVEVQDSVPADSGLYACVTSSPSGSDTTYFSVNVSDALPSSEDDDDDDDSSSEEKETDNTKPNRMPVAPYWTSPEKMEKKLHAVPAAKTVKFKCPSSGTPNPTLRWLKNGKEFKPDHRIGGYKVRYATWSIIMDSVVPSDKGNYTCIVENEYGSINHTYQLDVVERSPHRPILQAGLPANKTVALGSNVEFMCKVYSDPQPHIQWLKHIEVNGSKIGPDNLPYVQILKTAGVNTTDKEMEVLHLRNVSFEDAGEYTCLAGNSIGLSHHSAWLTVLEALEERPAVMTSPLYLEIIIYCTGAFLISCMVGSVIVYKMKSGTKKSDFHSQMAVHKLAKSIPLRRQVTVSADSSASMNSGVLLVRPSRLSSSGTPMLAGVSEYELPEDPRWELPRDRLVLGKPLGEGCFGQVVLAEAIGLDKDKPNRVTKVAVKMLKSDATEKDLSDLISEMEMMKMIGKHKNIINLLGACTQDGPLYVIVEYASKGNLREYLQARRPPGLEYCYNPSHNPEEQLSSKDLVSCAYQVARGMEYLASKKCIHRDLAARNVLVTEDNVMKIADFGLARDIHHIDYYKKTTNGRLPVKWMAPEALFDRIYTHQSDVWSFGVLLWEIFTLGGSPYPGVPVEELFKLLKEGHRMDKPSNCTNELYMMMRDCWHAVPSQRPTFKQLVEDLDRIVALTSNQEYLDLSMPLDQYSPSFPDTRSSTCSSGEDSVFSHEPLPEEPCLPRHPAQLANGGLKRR
Chain of Jak2 (O60674 whole entry, looked up): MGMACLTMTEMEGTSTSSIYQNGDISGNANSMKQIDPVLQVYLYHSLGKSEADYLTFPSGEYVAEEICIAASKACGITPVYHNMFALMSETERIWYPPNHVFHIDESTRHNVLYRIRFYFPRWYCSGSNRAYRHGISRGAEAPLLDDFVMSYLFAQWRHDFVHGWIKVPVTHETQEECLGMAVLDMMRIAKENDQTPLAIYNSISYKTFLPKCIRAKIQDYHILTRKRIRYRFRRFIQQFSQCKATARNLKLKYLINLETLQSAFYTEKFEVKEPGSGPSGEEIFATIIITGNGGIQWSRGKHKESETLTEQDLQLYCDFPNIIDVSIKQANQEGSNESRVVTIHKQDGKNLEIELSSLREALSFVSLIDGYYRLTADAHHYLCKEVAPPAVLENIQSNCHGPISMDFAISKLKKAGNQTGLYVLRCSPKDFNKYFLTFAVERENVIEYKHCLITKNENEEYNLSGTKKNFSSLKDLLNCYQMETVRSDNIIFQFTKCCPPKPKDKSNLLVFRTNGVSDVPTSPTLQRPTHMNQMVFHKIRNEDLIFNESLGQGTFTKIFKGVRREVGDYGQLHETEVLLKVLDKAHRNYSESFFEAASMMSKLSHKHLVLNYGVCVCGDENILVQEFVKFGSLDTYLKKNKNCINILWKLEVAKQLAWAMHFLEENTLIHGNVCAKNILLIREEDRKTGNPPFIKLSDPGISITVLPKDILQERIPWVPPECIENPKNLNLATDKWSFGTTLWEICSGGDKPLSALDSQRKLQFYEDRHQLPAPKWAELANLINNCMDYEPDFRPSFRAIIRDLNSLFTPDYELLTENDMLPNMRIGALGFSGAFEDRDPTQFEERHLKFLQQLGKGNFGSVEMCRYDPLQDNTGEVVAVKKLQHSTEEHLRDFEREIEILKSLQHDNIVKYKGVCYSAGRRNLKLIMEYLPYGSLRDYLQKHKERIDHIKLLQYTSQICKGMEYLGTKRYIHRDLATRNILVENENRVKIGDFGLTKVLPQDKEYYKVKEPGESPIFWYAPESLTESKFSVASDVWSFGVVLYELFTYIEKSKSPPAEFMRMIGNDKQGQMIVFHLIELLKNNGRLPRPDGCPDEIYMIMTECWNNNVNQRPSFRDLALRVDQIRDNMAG
Chain of EPHB2 (P29323 whole entry, looked up): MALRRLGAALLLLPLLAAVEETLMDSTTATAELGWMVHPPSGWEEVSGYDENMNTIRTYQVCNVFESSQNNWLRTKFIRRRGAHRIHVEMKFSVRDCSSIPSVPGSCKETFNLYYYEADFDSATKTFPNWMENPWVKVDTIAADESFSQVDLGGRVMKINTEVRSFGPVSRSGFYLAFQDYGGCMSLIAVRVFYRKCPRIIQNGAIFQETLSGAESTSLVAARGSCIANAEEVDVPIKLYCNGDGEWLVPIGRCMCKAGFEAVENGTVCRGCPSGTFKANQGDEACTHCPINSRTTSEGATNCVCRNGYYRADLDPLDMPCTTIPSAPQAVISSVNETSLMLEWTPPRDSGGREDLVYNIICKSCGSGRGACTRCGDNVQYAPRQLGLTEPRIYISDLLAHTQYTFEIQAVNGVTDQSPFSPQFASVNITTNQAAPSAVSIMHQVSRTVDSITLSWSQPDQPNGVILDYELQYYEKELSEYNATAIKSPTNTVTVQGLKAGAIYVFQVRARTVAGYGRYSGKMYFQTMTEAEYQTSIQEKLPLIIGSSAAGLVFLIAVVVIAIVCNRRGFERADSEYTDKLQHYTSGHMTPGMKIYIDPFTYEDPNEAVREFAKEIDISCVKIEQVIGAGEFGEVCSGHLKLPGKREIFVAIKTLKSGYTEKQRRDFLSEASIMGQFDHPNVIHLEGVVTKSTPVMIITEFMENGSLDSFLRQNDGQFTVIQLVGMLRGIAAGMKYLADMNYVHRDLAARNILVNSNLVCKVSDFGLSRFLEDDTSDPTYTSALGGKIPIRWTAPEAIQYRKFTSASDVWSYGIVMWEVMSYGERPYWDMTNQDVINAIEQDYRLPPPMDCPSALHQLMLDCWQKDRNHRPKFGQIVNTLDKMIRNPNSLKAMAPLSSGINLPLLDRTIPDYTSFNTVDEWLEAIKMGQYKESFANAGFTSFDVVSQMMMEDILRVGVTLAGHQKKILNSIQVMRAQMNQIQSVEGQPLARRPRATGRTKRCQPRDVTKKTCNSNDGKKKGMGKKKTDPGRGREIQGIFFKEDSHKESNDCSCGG
Chain of Hck (P08631 whole entry, looked up, the tested form may be a part): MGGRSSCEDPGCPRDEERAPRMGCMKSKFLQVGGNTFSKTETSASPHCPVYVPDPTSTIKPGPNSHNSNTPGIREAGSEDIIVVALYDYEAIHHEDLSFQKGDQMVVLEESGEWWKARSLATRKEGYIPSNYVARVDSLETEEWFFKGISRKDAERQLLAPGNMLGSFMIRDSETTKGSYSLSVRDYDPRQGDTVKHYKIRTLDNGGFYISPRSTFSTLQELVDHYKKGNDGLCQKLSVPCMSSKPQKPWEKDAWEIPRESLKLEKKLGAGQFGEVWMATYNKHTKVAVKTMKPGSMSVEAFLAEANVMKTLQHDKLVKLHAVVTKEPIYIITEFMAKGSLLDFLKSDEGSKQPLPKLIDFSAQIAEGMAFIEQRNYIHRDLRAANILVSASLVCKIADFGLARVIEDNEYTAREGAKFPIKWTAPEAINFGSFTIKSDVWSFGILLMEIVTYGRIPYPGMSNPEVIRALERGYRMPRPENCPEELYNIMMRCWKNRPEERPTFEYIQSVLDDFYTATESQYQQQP
Chain of Fyn (P06241 whole entry, looked up): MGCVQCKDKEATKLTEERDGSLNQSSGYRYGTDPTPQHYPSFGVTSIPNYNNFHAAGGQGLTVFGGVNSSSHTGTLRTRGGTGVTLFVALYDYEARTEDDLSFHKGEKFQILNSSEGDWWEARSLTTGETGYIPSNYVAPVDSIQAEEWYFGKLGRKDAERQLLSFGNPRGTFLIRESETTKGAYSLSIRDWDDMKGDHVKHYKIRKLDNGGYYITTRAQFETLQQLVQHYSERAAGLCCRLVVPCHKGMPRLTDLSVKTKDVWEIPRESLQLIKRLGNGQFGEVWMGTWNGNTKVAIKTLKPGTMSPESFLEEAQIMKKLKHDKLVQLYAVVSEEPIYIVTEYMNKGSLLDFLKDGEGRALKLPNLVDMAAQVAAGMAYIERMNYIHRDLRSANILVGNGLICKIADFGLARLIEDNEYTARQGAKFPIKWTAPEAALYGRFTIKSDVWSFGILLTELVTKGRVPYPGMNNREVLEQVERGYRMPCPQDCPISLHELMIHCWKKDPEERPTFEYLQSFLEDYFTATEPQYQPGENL

SH2 binding enrichment (c-Src SH2) | SH2 binding enrichment (Grb2 SH2) | SH2 binding enrichment (SHP2-C SH2) | Sequence | phosphorylation enrichment (Fer (mouse)) | phosphorylation enrichment (Fes) | phosphorylation enrichment (FGFR3) | phosphorylation enrichment (Jak2) | phosphorylation enrichment (c-Abl (mouse)) | phosphorylation enrichment (Fyn) | phosphorylation enrichment (AncSZ) | phosphorylation enrichment (EPHB2) | phosphorylation enrichment (EPHB1) | phosphorylation enrichment (MERTK) | phosphorylation enrichment (FGFR1) | phosphorylation enrichment (c-Src) | phosphorylation enrichment (Hck)
0.742 | 1 | 0.971 | TLSGIYQFNIA [FOXL2_Y81_I84N_YF] | 7.33 | 0.741 | 0.539 | 0.696 | 0.676 | 4.21 | 0.891 | 0.555 | 0.76 | 5.39 | 0.543 | 4.73 | 2.98
0.533 | 1 | 0.836 | TLSGIYQFSIA [FOXL2_Y81_I84S_YF] | 6.02 | 1.04 | 0.952 | 0.919 | 1.27 | 5.53 | 1.31 | 1.05 | 1.63 | 6 | 0.852 | 5.19 | 3.82
0.548 | 0.861 | 0.697 | TNDMRYPMKSE [TGDS_Y302] | 0.359 | 0.672 | 0.523 | 0.579 | 0.557 | 0.445 | 0.675 | 0.46 | 0.345 | 0.469 | 0.486 | 0.424 | 0.438
0.449 | 0.678 | 0.661 | TNFRLYLRSLE [MTM1_Y71_YF] | 0.612 | 1.49 | 0.964 | 1.29 | 0.798 | 0.449 | 1.37 | 0.782 | 0.895 | 0.43 | 0.538 | 0.476 | 0.513
0.537 | 0.759 | 0.6 | TNITEYCRDLI [RECQL_Y492_K487T] | 0.491 | 1.35 | 0.743 | 1.25 | 0.81 | 0.497 | 1.01 | 0.617 | 0.614 | 0.415 | 0.498 | 0.56 | 0.569
0.632 | 0.987 | 0.645 | TPGPNYCPGFN [USH2A_Y463_R464C_YF] | 0.557 | 0.643 | 0.35 | 0.662 | 0.643 | 0.578 | 0.334 | 0.254 | 0.499 | 0.507 | 0.515 | 0.944 | 0.333
0.805 | 1.36 | 0.891 | TPRNTYKMTSL [MKI67_Y849] | 0.443 | 0.512 | 0.445 | 0.477 | 0.496 | 0.475 | 0.477 | 0.545 | 0.323 | 0.428 | 0.386 | 0.459 | 0.395
0.452 | 0.844 | 0.525 | TPRNTYKMTSV [MKI67_Y849_L854V] | 0.343 | 0.558 | 0.474 | 0.513 | 0.584 | 0.425 | 0.657 | 0.468 | 0.518 | 0.445 | 0.482 | 0.502 | 0.458
1.15 | 1.64 | 2.46 | TRSYKYLLLSM [NF1_Y491] | 0.434 | 0.832 | 0.624 | 0.887 | 0.852 | 0.477 | 0.833 | 0.69 | 0.754 | 0.485 | 0.433 | 0.494 | 0.422
